According to the supplement of paper PMC10567573:

B1: CSTF3 (parent)
chain: YVPEKVKKAEKKLEENPYDLDAWS
B2: ZNF263 (parent)
chain: RTHTGEKPYKCTLCGENFSHRSNL

Variants of: B1
Assay: protein stability index of a GFP-peptide fusion (GPS, HEK-293T) (PSI 1-6); higher = more stable
Conditions: c terminus: a fixed tail appended
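Note: lentivirally expressed fusions sorted by FACS into six bins by GFP to DsRed ratio, PSI derived from sequencing read proportions per bin multiplied by bin number.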

Protein stability index of substitutions, site by site:
K11: Q 3.48; P 2.65; Y 2.72; S 2.66; V 3.77; R 2.94; W 2.4
P17: M 2.48; N 2.52; I 2.32; A 2.45; W 2.5; R 2.29; H 2.04; Q 1.22; G 2.39; S 2.37; L 3.01; F 1.95; Y 2.43; V 1.43; C 2.34; K 1.32; D 3.55; T 3.18; E 2.63
N16: F 3.03; T 2.27; K 3.09; Y 2.56; W 2.08; L 3.68; C 1.67; A 2.04; G 2.54; E 3.13; R 2.64; I 1.05; S 2.65; P 1.67; D 2.73; Q 2.24; M 1.81
D19: P 2.59; T 2.34; R 2.04; I 2.28; N 2.54; E 2.57; Y 2.69; G 3.95; A 2.2; W 2.98; H 1.58; Q 3.34; L 1.62; M 2.14; S 2.91; K 3.97
K12: M 2.6; V 2.59; I 2.7; G 2.68; R 2.88; N 2.92; D 2.9; L 2.95; Y 2.72; A 2.82; Q 3.16; E 2.41; P 3.32; C 2.49; S 3.79; F 3.31; H 3.19; T 3.28; W 2.9
E14: L 2.35; S 3.27; Y 2.2; N 2.18; C 3.58; R 2.36; K 2.88; P 3.04; H 2.92; Q 2.02; W 3.09; A 2.61; V 2.25; T 2.26; F 1.88; I 3.95; G 2.17
W23: P 3.22; C 2.38; R 2.81; L 2.93; E 1.28; H 1.95; S 2.6; N 3.51; K 1.84; Y 1.77; D 1.91; V 2.38; I 2.37; M 3.05; T 2.64; Q 1.79; A 1.81; G 3.81; F 3.27
D21: V 1.83; W 2.24; N 4.07; S 2.21; R 2.03; I 3.3; Y 2.19; E 3.37; H 2.43; A 2.98; F 2.63; G 2.66; P 1.43; Q 2.86; M 3.19; L 1.99
L20: W 1.55; I 1.97; V 3.2; H 2.84; K 1.96; E 1.76; A 2.54; S 2.24; R 2.9; Y 2.13; F 1.44; P 2.23; C 2.71; G 2.15; T 3.25; D 1.73; M 1.91; Q 2.79
A22: C 2.59; T 1.88; I 2.39; K 1.36; E 2.29; H 3.16; R 2.65; G 2.4; V 3.55; D 1.67; M 2.48; S 2.38; W 2.73; L 3.05; Q 2.98; F 1.8; N 2.26; Y 2.36; P 2.47
Y18: H 2.12; E 1.93; K 3.33; W 1.61; S 2.46; L 2.15; M 2.58; P 2.71; D 5.04; F 2.55; G 2.35; N 2.38; V 1.45; I 2.47; T 2.27; R 2.77; A 2.62; C 2.88; Q 2.17
L13: K 2.5; F 2.02; G 2.23; P 2.46; Q 2.36; D 2.22; I 3.1; W 2.45; R 2.67; E 2.86; H 2.49; T 1.92; A 2.25; M 3.19; S 3.52; V 2.21; Y 1.87
E15: L 3.23; V 3.54; A 3.94; T 1.58; Q 3.42; P 2.47; G 2.88; W 2.8; R 3.05; M 2.99; Y 3.42; K 3.45; C 2.68; S 3.34; H 2.05; D 2.86; F 2.55
S24: A 3.55; Q 2.23; I 1.86; T 2.81; F 2.83; D 2.21; H 1.95; C 3.61; K 2.79; Y 3.69; G 3.98; N 2.26; E 1.36; M 2.15; L 3.1; P 2.56; R 2.02; V 2.85; W 1.66

Variants of: B2
Assay: as above
Conditions: c terminus: a fixed tail appended

Protein stability index of substitutions, site by site:
T4: H 1.91; F 2.05; S 2.03; R 3.78; A 2.47; V 1.69; P 2.34; G 2.02; L 1.79; Y 2.43; M 2.1; N 2.1; K 2.43; I 1.82; Q 2.01; W 1.75; E 2.77; C 2.04; D 1.87
H3: S 2.18; D 2.06; R 2.58; F 2.15; C 1.61; M 2.19; V 1.85; T 1.93; Q 2.31; E 1.74; I 2.58; A 2.27; W 1.41; K 2.05; N 1.97; P 2; Y 1.93; G 1.93; L 2.35
T2: Q 2.02; R 3.06; E 1.76; F 1.73; K 2.7; A 2.02; C 2.07; H 2.21; Y 1.45; M 1.97; S 2.1; P 2.34; L 2.17; D 2; N 2.28; W 2.35; G 1.74; I 1.98; V 2.52
G5: D 2.05; F 1.86; S 1.7; T 2.24; K 2.37; Y 1.63; E 2.46; P 1.88; Q 2.46; H 2.22; A 1.59; N 2.3; L 1.88; M 2.13; V 1.83; R 2.2; C 3.14; I 2.06; W 2.4
R1: V 2.27; K 2.22; D 1.93; M 1.38; C 3.43; E 2.13; S 1.89; A 2.03; H 3.08; P 1.98; L 2.39; W 1.99; G 1.8; Q 1.79; N 1.69; I 2.12; T 1.99; Y 2.17; F 2.41
